The domain aggregation screens of Martell et al. (2025)

experiment: soluble fraction after stress (log2 fold change); higher = more stays soluble; pooled small domains, quantitative proteomics; conditions: stress: 50 degC
Outline: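 Each library was heated to 50°C as a stress step. The libraries, made up of small protein domains, were pooled and analysed at high throughput by quantitative proteomics. The reported value is the base-two logarithm of the fold change in each protein's soluble amount after stress, taken as a measure of aggregation propensity. The higher the value, the more protein stays in solution.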

Sequence | soluble fraction (log2)
HMAIWAVFYKNEPFNLKSFNSLTSYPGPKYKKTSFSNPGHALNLAKKLNLTFGTEDFQVVKLTQGTIV | -2.61
HMEPFEQLLDRITSQTGKEPEEVVARMNELITERFDGNIRPEAALVIVAKRDNIQFMDLLDQLKQALL | -0.516
HMANLDSLIKKVGQYAKDKQSISVDGIKKDLSIDKDMVKEALAELLKIGVVDKPDEAGQYKVIM | 0.299
HMSDPEAFIRQTVAAAEPEGIALSVLGKRVRGKFRTFKLRDLGYAQFRPYLGDLDGIKVEQRDGQSYARLD | -0.795
HMSMSKISNLLEIMMIIQYKGLTTASELAQSLGVDKKTVYRYINSLSKANIPIYTKKGRYGGFYIDKNF | -1.19
HMEGIWAVFYDGKPINLKSSSLVANYPGPKYKKVSFSNPGHAENLAKKLNAQHNTDKFGVYLLKSGDKFS | -0.00158
HMNSLKNKNNLIALVGASNDKNKYGNKILLDLVSKGHNVVPINPKEDTVAGLKSYNNVSELSEKPSI | -0.211
HMYYDDEELDDYRGKASDAYTAAEVEQFEEVLTTMRPEEVHGWLRSLQLRGVALPDALKDEAYMIVSEQAE | -0.252
HMTTSNPMNVTSAEAAFDNGTDRLNAFISGRTTSEERSTYFPLFVRETKEDFLRAVGRFNEYIANHG | 0.0364
HMFWRKIDFYGLNLSTYRNIINIGSDYNYIYLDLGNIYKILNPITGKIIEEQDLVMNIDNINWSS | -0.0971
HMNSKMTYSELVTNITNKEVESIKISSTGSTASVKLKNSKSEKEVNIPSLDSFMSYTEEYLKTGDFTLDEE | -0.144
HMAQLVVTVDKLNKRTAIPVTLSDKSSNDSVVEKGFRFEGFPFVNTATNGKKWYKDREGFFYWAGGLMEEA | 0.0125
HMSGMNSDHRVNGNIHTFLIQHDLGTKWSVFTEQLLKQVFRSFLPDKELNFQTTDSTVILKVSLGSDFNEH | -0.0505
HMSDDLLTGLDAYSRGDWTTATASFERVLTTADPNNRTEALYWLVMSETSAQNYQRALNYANTFL | -0.688
HMLMTGSLQTKHGKYYVVVRIPDGLGNTKAKWINTGIPTDGNNKRKAQQRRIEILTELEENKD | -1.84
HMQQEAVNLVQSRGQQAIEPVHIMQGVMKVGENVTNFIFQKLGMNGQQVALVVDKQIDSLPKVSGGEPYL | 0.0273
HMISAQEQALRNLKLSNGMTWKALAKALGITERSILSYVAAPGTKGYREMPAEVWHKLENISGH | 0.165
HMSNVKVYPNPTSGKLTIDAENYKGVEVYDTSGRLIVKSELRTIDLEEQSKGLYLLKVNANGTTQEFKVFK | 0.0145
HMPMTDYQLIRSNRRTIALQITRDARVVVRAPLYASEADIRRFVESHRAWIESHLDRQRARTD | -1.76

Sequence | soluble fraction (log2)
HMQGEKDDLWREVLDNPDAWWDNRERKNAPGGNPRYPDFKHKDSQTPLWIESRDTPQWAIDALL | 0.383
HMRIFDDNMIFPTEAEISAALKRLVMDLPKVGFLQGHGERAVDNVGERAYSMFTHANNFRYALINQGFVT | -0.176
HMDRMFQPETWSKIYQWVMNDPQVPDKEDVLALIRRHFGNFEKLIKLLHYLDGGKPYAYLSEH | -0.115
HMGISEKVINIIETYTMIARKKYPSVKSLAEHFNVSERTVHRYLEIIKMIDVVDYDREKKGYFFPYGDR | -1.11
HMTVEMYIGKTANVLETVTENNGRIAIFGEEWQAKSLNGETIEKGAQAKIVKNDSIIMYVVPI | 0.0967
HMAAGADEATTVPNVSGDTLNQAIKSLKAEGLGYMLSGAGARVRDQMPEPGAEMTKGSVVMLYMDGDAEVD | -0.0304
HMIDHKVIRSFRQKRNMTLQELAQKANLSVSYLSEIELGKKQPSLETLDKLSKALNISLEGL | -0.116
HMSADISIGYNIPKGSVTVSAGGRTLQEGIDYDINYDLGTIKITNQAILNAGLPVQVNFENNAS | 0.149
HMESEAKLGVAFNGKTRFDMTFPADADNKTIEEAVLADERAQKYLEGFQVAKVIIVPKRMVNIVLK | 0.24
HMTIGEALLNLRKQLGLNQTEMAANVVSTSFYSKVERNIHDIGTKDLLQILNKHQINATYFFENLN | -1.91
HMAAVPYQVKITTEDLRIRTGPGTNHDFTGQYTGKGVFTIVEESEGSGAPIWGRLKSGAGWIGIDPSWSVR | -0.706
HMVGDLPPQELRVFELIGDGLSNREIADEMILAEKTIKNYVTSLLQKLGMQRRTEAAAFAARLDER | -0.0396
HMAKNDSGLNNHTFNTIRDALQKALTDGPQEAKKLTENLPFPADKIITVIRYLADHDEHFSLEDGIISLT | 0.24
HMLHQSLVVNAASGRVTVSLDIVPDEDNPYAVLRATDDSDEPLAQVRVAPSFKLNRASALAWIESQFARP | -0.821
HMAIDLSLIPGNLLRELHGAVEDGDMYRIRELIRSISAVDEKVGKELLLLAERYDYERLLELVND | -0.384
HMAKQQTTTTAHVVTTGETLYSIAQKNGISVEELKKSNNITSDKLRPGQTLHITKVSKTSSTAK | 0.365
HMPDTETLTPRQRQILDLVQELGFTTIETLAERFGVSAQTVRREIIRLQAGNFLQRFHGGAGLASGGIRSA | -0.632
HMPTNSDRLIGSDGVVSSKIDNLQGTGKVYISGLTWSARTIDGSEAEEGDIVTVEKIEGATLYVTKR | 0.0599
HMQESTPGEGYKWREDVLLRVMSQNGIDESLRDEFVRHAVNYDIDDNMYLKKAEIESAAEAWVLENS | -0.0581
